Assays:
[1] = biological target: human wild-type p53 (product of p53-H8 cDNA, plasmid pSP65-p53H8) (human, UniProt P04637 1-393); assay: cell-based or functional assay
[2] = biological target: T1, GST-RB18A-N1 (aa 436 to 1566) fusion protein (human, UniProt Q15648 451-1581); assay: GST pull-down of 35S-translated product on glutathione Sepharose beads
T1 construct: D9 cDNA cloned downstream of the glutathione transferase gene in pGEX4T-3; also called GST-RB18A fusion protein; mutant 1; not shown: GST moiety (glutathione transferase of pGEX4T-3) and the vector linker between GST and RB18A
Source text: (§1) GST fusion proteins were produced in E. coli strain BL21 and purified on glutathione Sepharose 4B beads (Pharmacia LKB) as described by the manufacturer. […] After washing, pelleting, and boiling in Laemmli buffer, eluted proteins were resolved on 10% SDS/PAGE and visualized by autoradiography.

[3] = biological target: T1, GST-RB18A-N1 (aa 436 to 1566) fusion …; assay: GST pull-down, quantification of retained protein
Source text: as §1

Chain of human wild-type p53 (product of p53-H8 cDNA, plasmid pSP65-p53H8) (P04637 whole entry, the tested form may be a part): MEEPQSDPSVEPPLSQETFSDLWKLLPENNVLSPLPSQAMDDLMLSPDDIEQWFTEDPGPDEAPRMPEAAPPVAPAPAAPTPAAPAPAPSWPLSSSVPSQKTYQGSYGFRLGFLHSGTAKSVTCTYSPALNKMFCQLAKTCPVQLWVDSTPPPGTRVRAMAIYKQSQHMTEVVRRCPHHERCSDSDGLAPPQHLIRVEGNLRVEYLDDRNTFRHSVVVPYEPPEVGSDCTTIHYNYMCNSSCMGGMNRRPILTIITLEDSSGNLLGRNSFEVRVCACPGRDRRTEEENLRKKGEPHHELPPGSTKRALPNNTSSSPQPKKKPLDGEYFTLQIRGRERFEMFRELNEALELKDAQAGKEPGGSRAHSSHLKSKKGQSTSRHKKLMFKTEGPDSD

activation of the IGF-BP3 promoter (reporter gene in H1299 and K562 cells) [1] [fold] | activation of the MDM2 promoter (reporter gene in H1299 and K562 cells) [1] [fold] | activation of the p21Waf1 promoter (reporter gene in H1299 and K562 cells) [1] [fold] | % of input bound [2] | molar ratio retained on GST-RB18A [3] [molar ratio] | Binder
13 | 5 | 10 | – | – | carboxy-terminal domain of RB18A expressed in transfected cells (cDNA nucleotides 3935 to 4933) (other) LGSSGSLSQKTPPSSNSCTASSSSFSSSGSSMSSSQNQHGSSKGKSPSRNKKPSLTAVIDKLKHGVVTSGPGGEDPLDGQMGVSTNSSSHPMSSKHNMSGGEFQGKREKSDKDKSKVSTSGSSVDSSKKTSESKNVGSTGVAKIIISKHDGGSPSIKAKVTLQKPGESSGEGLRPQMASSKNYGSPLISGSTPKHERGSPSHSKSPAYTPQNLDSESESGSSIAEKSYQNSPSSDDGIRPLPEYSTEKHKKHKKEKKKVKDKDRDRDRDKDRDKKKSHSIKPESWSKSPISSDQSLSMTSNTILSADRPSRLSPDFMIGEEDDDLMDVALIGN
– | – | – | 10 % of input | 1 | in vitro translated product of D9 cDNA (partial RB18A, aa 436 to 1566) (other, 35S-methionine labelled, also called 35S-RB18A protein; in vitro translated D9 protein) SVSFQHPVNDSLVCVVMDVQGLTHVSCKLYKGLSDALICTDDFIAKVVQRCMSIPVTMRAIRRKAETIQADTPALSLIAETVEDMVKKNLPPASSPGYGMTTGNNPMSGTTTSTNTFPGGPIATLFNMSMSIKDRHESVGHGEDFSKVSQNPILTSLLQITGNGGSTIGSSPTPPHHTPPPVSSMAGNTKNHPMLMNLLKDNPAQDFSTLYGSSPLERQNSSSGSPRMEICSGSNKTKKKKSSRLPPEKPKHQTEDDFQRELFSMDVDSQNPIFDVNMTADTLDTPHITPAPSQCSTPPTTYPQPVPHPQPSIQRMVRLSSSDSIGPDVTDILSDIAEEASKLPSTSDDCPAIGTPLRDSSSSGHSQSTLFDSDVFQTNNNENPYTDPADLIADAAGSPSSDSPTNHFFHDGVDFNPDLLNSQSQSGFGEEYFDESSQSGDNDDFKGFASQALNTLGVPMLGGDNGETKFKGNNQADTVDFSIISVAGKALAPADLMEHHSGSQGPLLTTGDLGKEKTQKRVKEGNGTSNSTLSGPGLDSKPGKRSRTPSNDGKSKDKPPKRKKADTEGKSPSHSSSNRPFTPPTSTGGSKSPGSAGRSQTPPGVATPPIPKITIQIPKGTVMVGKPSSHSQYTSSGSVSSSGSKSHHSHSSSSSSSASTSGKMKSSKSEGSSSSKLSSSMYSSQGSSGSSQSKNSSQSGGKPGSSPITKHGLSSGSSSTKMKPQGKPSSLMNPSLSKPNISPSHSRPPGGSDKLASPMKPVPGTPPSSKAKSPISSGSGGSHMSGTSSSSGMKSSSGLGSSGSLSQKTPPSSNSCTASSSSFSSSGSSMSSSQNQHGSSKGKSPSRNKKPSLTAVIDKLKHGVVTSGPGGEDPLDGQMGVSTNSSSHPMSSKHNMSGGEFQGKREKSDKDKSKVSTSGSSVDSSKKTSESKNVGSTGVAKIIISKHDGGSPSIKAKVTLQKPGESSGEGLRPQMASSKNYGSPLISGSTPKHERGSPSHSKSPAYTPQNLDSESESGSSIAEKSYQNSPSSDDGIRPLPEYSTEKHKKHKKEKKKVKDKDRDRDRDKDRDKKKSHSIKPESWSKSPISSDQSLSMTSNTILSADRPSRLSPDFMIGEEDDDLMDVALIGN

Source: patent US20040052794A1 (published 2004)
